For 1 substance, Km results are on record in paper doi:10.1101/586255v1.

For orientation: Km means the substrate concentration at which the rate is half of its maximum.

This series deals with N[C@@H](CO)C(=O)O. The experiment in a line: purified protein, by the assay type. As to conditions: pH 7.6; 37.0 °C.

Regarding HsSerRS (Homo sapiens), the Km amounted to 1083 ± 156 µM.
